Reference: patent US6143719A, “Bradykinin analogs as selective thrombin inhibitors” (The Regents of the University of Michigan, priority 1996, dated 2000)
One block for each substance: values may come before it. Ends that are not written are not given here.

Legend:
α-thrombin = α-thrombin (Homo sapiens, UniProt P00734); test: α-thrombin cleavage of thrombin receptor peptide NAT12 (HPLC); format: biochemical; details: peptide 1 mM
Description: A further study was performed to determine whether BK analogs prevent α-thrombin from cleaving the thrombin receptor reported by Vu et al., Cell 64, 1057 (1991). A peptide, NAT12 (SEQ ID NO:2), which spans amino acids […] of the α-thrombin cleavage site on the thrombin receptor, was used to determine whether the BK analogs described herein blocked α-thrombin cleavage of the cloned receptor.
The cleavage study was performed according to the method of Molino et al., J. Biol. Chem. 270,11168(1995),inwhichNAT12(SEQ ID NO:2) was dissolved in a solution of 0.01 M NaH2 PO4 and 0.15 M NaCl, pH 7.4. […] Following incubation, each mixture was separated by applying the mixture to a Vyadec C-18 HPLC column in 0.1% trifluoroacetic acid and eluting the mixture with a gradient from 0% to 100% of 80% MeCN and 0.1% trifluoroacetic acid. The size of the separated products were confirmed by mass spectrometry.

Human platelets in PRP = test: γ-thrombin-induced aggregation of human platelets in PRP in vitro; format: cell-based; details: 20 nM γ-thrombin
Description: Platelet aggregation studies on the PRP were conducted on a 4-channel aggregometer (BioData-PAP-4, Bio Data Corp., Hatboro, Pa.). The degree of platelet aggregation was determined by measuring the increase in light transmission through a stirred suspension of PRP maintained at 37° C. Platelet aggregation was induced in the PRP sample by addition of 20 μM ADP and γ-thrombin according to the method of Harfenist et al., Thromb. Haemost. 53, 183 (1985). […] Like human platelets, rabbit platelets display a variable response to γ-thrombin. Each rabbit's platelets were evaluated before BK analog infusion for their threshold response to γ-thrombin. The rabbit platelets used in this experiment were responsive to 10 nM to 40 nM γ-thrombin. Simultaneous γ-thrombin-induced platelet aggregation studies were performed with 10, 20, and 40 nM γ-thrombin and 20 μM ADP.
The protocol for the human platelet study was identical to that for the functional study with white rabbits described above in Section III.A, with the following differences.
Blood samples were obtained from normal human volunteers. Platelet counts were measured with a Coulter counter, Model 2F (Coulter, Hialeah, Fla.,) and adjusted to a platelet count of 200,000 platelets/μl. Each individual's platelets at baseline were measured for their threshold response to γ-thrombin. Typical threshold levels were between 10 nM to 40 nM.

thrombin receptor = target: T1, thrombin receptor (Homo sapiens, UniProt P25116); test: flow cytometry of thrombin receptor epitopes (SPAN12, ATAP138) on α-thrombin activated platelets; format: cell-based; details: peptide 1 nM (so in the source), α-thrombin 1 nM
T1 construct: endogenous in cells; host or cells: washed platelets from fresh blood
T1 sequence (P25116 22-425): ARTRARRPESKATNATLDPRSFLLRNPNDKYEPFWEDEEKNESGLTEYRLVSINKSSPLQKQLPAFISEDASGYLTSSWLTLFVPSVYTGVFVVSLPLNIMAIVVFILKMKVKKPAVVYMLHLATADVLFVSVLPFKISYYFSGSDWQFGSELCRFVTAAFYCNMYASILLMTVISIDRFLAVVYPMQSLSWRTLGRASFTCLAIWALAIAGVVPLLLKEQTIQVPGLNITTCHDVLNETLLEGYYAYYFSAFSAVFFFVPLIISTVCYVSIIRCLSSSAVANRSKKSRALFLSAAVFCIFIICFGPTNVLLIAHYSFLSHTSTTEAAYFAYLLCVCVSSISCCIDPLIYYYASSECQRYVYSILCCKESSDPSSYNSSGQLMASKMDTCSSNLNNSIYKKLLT
Description: Flow cytometry studies were performed to determine whether BK analogs prevent α-thrombin from eliminating an epitope on the thrombin receptor which is lost following α-thrombin cleavage- of the receptor. SPAN12 is an antibody to the thrombin receptor on platelets, which is specific for such an epitope. Studies were also performed to determine the effect of BK analogs on an epitope recognized by monoclonal antibody ATAP 138. The antibody is directed to an epitope on the thrombin receptor which is preserved after α-thrombin cleaves the receptor (FIGS. 7A-7D).
Monoclonal antibody SPAN12 was reared to the 12 amino acids, Asn-Ala-Thr-Leu-Asp-Pro-Arg-Ser-Phe-Leu-Leu-Arg (SEQ ID NO:2), that bridge the α-thrombin cleavage site on the thrombin receptor by the methods of Molinot et al., J. Biol. Chem. 270:ln Press, 1995. […]
Mouse IgG and an antibody to the epitope CD62 were used as controls. […] The fluorescence of bound FITC-anti-IgG to platelets was monitored on an Epics-C flow cytometer (Coulter Electronics, Hialeah, Fla.). Light scatter and fluorescence channels were set at logarithmic gain. […] Green fluorescence was observed through a 525 nm band pass filter. The relative fluorescence intensity of at least 15,000 platelets was analyzed in each sample. […]

Substance: SEQ ID NO:21: non-BK analog peptide derived from domain 3 of kininogen (LNAENNA) [reference compound]
protection of NAT12 / thrombin receptor from α-thrombin cleavage (α-thrombin): no protection
cleavage product peak 2, share of non-treated NAT12 peak area (α-thrombin; 8 nM α-thrombin): 32%
cleavage product peak 3, share of non-treated NAT12 peak area (α-thrombin; 8 nM α-thrombin): 54%
reduction of NAT12 peak 1 area after α-thrombin (α-thrombin; 8 nM α-thrombin, one hour 37° C.): 86%
effect on γ-thrombin-induced aggregation tracing (Human platelets in PRP; peptide 1 mM): unable to alter

alteration of SPAN12 epitope by α-thrombin (thrombin receptor): did not prevent
Substance: SEQ ID NO:4: unrelated peptide having an amino acid content similar to BK analog SEQ ID NO:14 (FNQTQPERGDNNLTR)

Substance: 4-MAP: four-branch multiple antigenic peptide of BK analog SEQ ID NO:20 on a lysine-β-alanine core (RPPG; also: four-branch MAP on lysine-beta-alanine core)
effect on γ-thrombin-induced aggregation tracing (Human platelets in PRP; 0.05 mM): abolished
